{"source": "paper PMC1533836", "target": "APNAnq 100 (100-kDa aminopeptidase N from Anopheles quadrimaculatus brush border membrane) (Anopheles quadrimaculatus)", "test": "SPR", "data": [{"substance": "Bacillus thuringiensis Cry11Ba toxin (trypsin-activated) (from UniProt Q45730 1-724) (natural protein)", "values": [{"measurement": "koff", "value": "1.03e-07", "unit": "s⁻¹"}, {"measurement": "kon", "value": 184, "unit": "M⁻¹ s⁻¹"}]}]}
